Sequences and labels used below:
T1: mNPR1-mFc (mouse)
T1 construct: also called mouse NPR1 extracellular domain expressed with a C-terminal mouse IgG2a
T1 chain: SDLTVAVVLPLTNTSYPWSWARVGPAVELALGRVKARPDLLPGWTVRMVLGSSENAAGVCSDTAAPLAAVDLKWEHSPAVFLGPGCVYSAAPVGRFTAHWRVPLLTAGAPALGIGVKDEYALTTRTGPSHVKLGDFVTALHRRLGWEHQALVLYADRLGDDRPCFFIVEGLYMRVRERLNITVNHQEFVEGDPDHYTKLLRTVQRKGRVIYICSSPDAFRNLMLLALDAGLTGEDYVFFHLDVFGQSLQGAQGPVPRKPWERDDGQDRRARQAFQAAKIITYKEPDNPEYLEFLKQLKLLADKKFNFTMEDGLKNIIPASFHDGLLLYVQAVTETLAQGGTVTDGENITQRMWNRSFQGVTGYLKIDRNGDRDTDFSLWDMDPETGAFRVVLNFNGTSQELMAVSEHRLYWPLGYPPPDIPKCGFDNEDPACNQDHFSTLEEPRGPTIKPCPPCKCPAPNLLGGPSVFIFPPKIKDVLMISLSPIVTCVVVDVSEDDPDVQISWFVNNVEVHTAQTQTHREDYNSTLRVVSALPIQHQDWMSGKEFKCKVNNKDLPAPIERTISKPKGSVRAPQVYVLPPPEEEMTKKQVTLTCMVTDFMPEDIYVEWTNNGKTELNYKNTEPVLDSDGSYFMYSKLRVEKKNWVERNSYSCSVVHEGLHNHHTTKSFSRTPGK

T2: human NPR1 on HEK293/hNPR1.myc.DDK cells (0 hANP) (human, UniProt P16066 33-1061)
T2 construct: Full-length receptor on engineered HEK293 cells, no ANP added; also called HEK293/hNPR1.myc.DKK
T2 sequence: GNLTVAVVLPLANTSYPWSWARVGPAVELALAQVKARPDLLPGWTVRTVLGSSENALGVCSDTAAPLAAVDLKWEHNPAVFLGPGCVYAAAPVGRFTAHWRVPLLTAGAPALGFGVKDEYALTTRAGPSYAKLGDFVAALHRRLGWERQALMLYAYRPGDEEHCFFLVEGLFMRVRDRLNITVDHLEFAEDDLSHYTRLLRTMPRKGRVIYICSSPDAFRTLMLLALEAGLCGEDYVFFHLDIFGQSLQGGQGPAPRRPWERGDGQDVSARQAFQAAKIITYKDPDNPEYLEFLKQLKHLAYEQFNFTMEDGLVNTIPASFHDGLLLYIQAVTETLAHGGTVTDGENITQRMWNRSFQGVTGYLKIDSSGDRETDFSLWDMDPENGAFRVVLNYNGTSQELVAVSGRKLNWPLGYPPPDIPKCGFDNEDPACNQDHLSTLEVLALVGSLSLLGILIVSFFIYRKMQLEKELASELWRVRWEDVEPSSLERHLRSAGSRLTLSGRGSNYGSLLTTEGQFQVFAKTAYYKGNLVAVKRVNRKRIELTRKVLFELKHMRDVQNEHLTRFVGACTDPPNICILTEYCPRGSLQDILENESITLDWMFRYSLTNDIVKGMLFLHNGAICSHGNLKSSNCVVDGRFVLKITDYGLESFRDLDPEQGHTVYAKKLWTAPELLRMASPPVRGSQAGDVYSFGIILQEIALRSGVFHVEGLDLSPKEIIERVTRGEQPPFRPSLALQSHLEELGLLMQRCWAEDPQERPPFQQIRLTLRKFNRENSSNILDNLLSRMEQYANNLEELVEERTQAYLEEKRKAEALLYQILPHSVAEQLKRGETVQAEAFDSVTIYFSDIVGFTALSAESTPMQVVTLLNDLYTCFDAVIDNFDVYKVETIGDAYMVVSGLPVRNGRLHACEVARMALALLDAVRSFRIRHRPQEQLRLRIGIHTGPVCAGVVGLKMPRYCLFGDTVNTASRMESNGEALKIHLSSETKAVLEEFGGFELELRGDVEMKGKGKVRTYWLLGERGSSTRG

T3: human NPR1 on HEK293/hNPR1.myc.DDK cells with 10 nM hANP (NPR1-ANP complex) (human, UniProt P01160 124-151)
T3 construct: also called NPR1-ANP Complex on the Cell Surface
T3 sequence: T2 sequence
T3 sequence (peptide): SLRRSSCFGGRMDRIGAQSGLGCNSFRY

B1: mAb25545 (antibody, human IgG4, V domains shown)
VH: QVQLVESGGGLVKPGGSLRLSCAASGFTFSDYHLSWIRQAPGKGLEWVSYIRSSGRTIDYAASVKGRFTISRDNAKNSLYLQMNSLRVEDTAVYYCARENWIVLKVYAGIVGAPLDQWGQGTLVTVSS
VL: not shown
B2: mAb22805 (antibody, human IgG4, V domains shown)
VH: QVQLVESGGGVVQPGRSLRLSCAASGFTFSTYGMHWVRQAPGKGLEWVALIWNDGSNKYYADSVKGRFTISRDNSKNTLDLQMNSLRAEDTAVYYCARLNTRITGTTNLDYWGQGTLVTVSS
VL: DIQMTQSPSSLSASVGDRVTVSCRASQSIANYLNWYQQKPGKAPNLLIYGAYTLQSGVPSRFRGSGSGTDFTLTISSLQPEDFATYYCQQTYSTPPITFGQGTRLEIK
B3: mAb22809 (antibody, human IgG4, V domains shown)
VH: QLQLRESGPGLVKPSETLSLTCTVSGGSINDNSFFWDWIRQTPGRGLEWIGNIFFDGNTYYTPSLKSRVIISVDMSQNQFSLRLTSVTAADTALYYCARHKRSMTAWGFFDYWGQGTLVTVSS
VL: DIQMTQSPSSLSASVGDRVTITCRASKRINTYLNWYQQKPGKAPKVLIYSASNLQSGVPSRFSGSGSGTDFTLTINSLQPEDFATYFCQQSFSAPPITFGQGTRLEIK
B4: mAb22810 (antibody, human IgG4, V domains shown)
VH: EVQLVESGGGLVKPGGSLRLSCVVSGFTFRIYTMNWVRQAPGKGLEWVASISSSSSFINYADSLKGRFTISRDNAQNSLYLQMNSLRAEDTAIYYCARAAGNDVLPGRMDVWGQGTSVTVSS
VL: EIVLTQSPGTLSLSPGERATLSCRASQSVSSNYLAWYQQKPGQVPSLLIYGASSRATGIPDRFSGSGSGTDFTLTITRLEPEDFAVYYCQQYGISPWTFGQGTKVEIK

For orientation: EC50 means the concentration that produces a half-maximal response. The Kd is a measure of binding affinity in units of concentration. The koff is the rate constant with which the complex falls apart. A word on the kon: it is the rate constant with which the complex forms. Low readings indicate slower complex formation, high ones faster complex formation. What is called t½ is the time needed for the level to fall by half in the phase considered.

The target in the first assay is T1, mNPR1-mFc. The experiment in a line: SPR Biacore, mAb captured by anti-human Fc, 25C. As for the experimental part:
(§1) Equilibrium dissociation constant (KD) for different NPR1 reagents binding to purified anti-NPR1 monoclonal antibodies (mAbs) were determined using a real-time surface plasmon resonance based Biacore 4000 biosensor. All binding studies were performed in 10 mM HEPES, 150 mM NaCl, 3 mM EDTA, and 0.05% v/v Surfactant Tween-20, pH 7.4 (HBS-ET) running buffer at 25° C. and 37° C. The Biacore CM5 sensor chip surface was first derivatized by amine coupling with either mouse anti-human Fc specific mAb (GE Healthcare, #BR100839) or goat anti-human Fcy specific polyclonal antibody (Jackson ImmunoResearch Laboratories, #BR-1008-39) to capture anti-NPR1 mAbs.
A general note: Surface plasmon resonance follows binding to a sensor surface in real time, without labels.
B1: the “100 nM Ag Bound (RU)” value was 0 RU.

Take B2: the “100 nM Ag Bound (RU)” value stood at 0 RU.

Consider B3, for which the “100 nM Ag Bound (RU)” value worked out at 0 RU.

A further assay concerns the target T2, human NPR1 on HEK293/hNPR1.myc.DDK …. In words: ECL cell binding (MSD), HEK293/hNPR1.myc.DDK cells, 0 hANP. As for the experimental part: (§2) Experiments were carried out according to the following procedure. Cells from lines described above were rinsed once in 1×PBS buffer without Ca²⁺/Mg²⁺ nd incubated for 10 minutes at 37° C. with Enzyme Free Cell Dissociation Solution to detach cells from a flask. All cells were washed once with 1×PBS with Ca²⁺/Mg²⁺ and counted with a Cellometer™ Auto T4 cell counter (Nexcelom Bioscience). Approximately 2.0×10⁴ HEK293/hNPR1.myc.DDK or HEK293 cells were seeded separately onto 96-well carbon electrode plates (MULTI-ARRAY high bind plate, Meso Scale Discovery (MSD, Rockville, MD)) and incubated for 1 hour (h) at 37° C. Nonspecific binding sites were blocked by 2% BSA (w/v) in 1×PBS with Ca²⁺/Mg²⁺for 1 h at room temperature (RT). HEK293/hNPR1.myc. […] The plate-bound antibodies were detected with SULFO-TAG™-conjugated goat polyclonal anti-human IgG antibody specific for heavy and light chains (Jackson Immunoresearch, West Grove, PA) for 1 h, RT.
(§3) After washes, plates were developed with Read Buffer (MSD, Rockville, MD) according to manufacturer's recommended procedure and luminescent signals were recorded with a SECTOR Imager 600 (MSD, Rockville, MD). Luminescence intensity, measured in relative light units (RLU), was recorded to indicate the binding intensity of each antibody at the range of concentrations.
As to B1, the binding result is “no binding (tested: ratio below 3 at 3.7 nM Ab)”.

Consider B2, for which the binding result was “no binding (tested: ratio below 3 at 3.7 nM Ab)”.

Take B3: the binding result is listed as “no binding (tested: ratio below 3 at 3.7 nM Ab)”.

In the case of B4, the binding result is listed as “no binding (tested: ratio below 3 at 3.7 nM Ab)”.

The next assay shares this target. In words: ECL cell binding (MSD), 0 hANP. As for the experimental part:
as §2, with “All” for “Experiments were carried out according to the following procedure. Cells from lines described above were rinsed once in 1×PBS buffer without Ca²⁺/Mg²⁺ nd incubated for 10 minutes at 37° C. with Enzyme Free Cell Dissociation Solution to detach cells from a flask. All”
as §3
(§4) In addition, direct binding signals (RLU) were analyzed as a function of the antibody concentration and data were fitted with a sigmoidal (four-parameter logistic) dose-response model using R statistical package (open source).
For the molecule B1, the “Ratio at 3.7 nM Ab concentration of Cell Binding Signal (RLU) to HEK293/hNPR1.myc.DKK relative to parental HEK293” value amounted to 1 ratio.

B2: the “Ratio at 3.7 nM Ab concentration of Cell Binding Signal (RLU) to HEK293/hNPR1.myc.DKK relative to parental HEK293” value was determined as 1 ratio.

Regarding B3, the “Ratio at 3.7 nM Ab concentration of Cell Binding Signal (RLU) to HEK293/hNPR1.myc.DKK relative to parental HEK293” value is 2 ratio.

On to B4, for which the “Ratio at 3.7 nM Ab concentration of Cell Binding Signal (RLU) to HEK293/hNPR1.myc.DKK relative to parental HEK293” value was found to be 1 ratio.

The next assay shares this target. In words: cell-based or functional assay.
As for B1, the “% Activation (vs ANP max), Expt 1” value is 123%; the “% Activation (vs. ANP max), Expt II” value was 123%; the “EC50 (nM), calcium flux, Expt 1” value was determined as 188 nM; the “EC50 (nM), calcium flux, Expt II” value is 74.1 nM.

As to B2, the “% Activation (vs ANP max), Expt 1” value came to 91.6%; the “% Activation (vs. ANP max), Expt II” value stood at 119%; the “EC50 (nM), calcium flux, Expt 1” value stood at 239 nM; the “EC50 (nM), calcium flux, Expt II” value is 112 nM.

For B3, the “% Activation (vs ANP max), Expt 1” value came to 86.7% and the “EC50 (nM), calcium flux, Expt 1” value came to 270 nM.

As to B4, the “% Activation (vs. ANP max), Expt II” value worked out at 126% and the “EC50 (nM), calcium flux, Expt II” value is 50.8 nM.

In the next assay the target is T3, human NPR1 on HEK293/hNPR1.myc.DDK …. In words: ECL cell binding (MSD), +10 nM hANP. As for the experimental part: as §2, with “All” for “Experiments were carried out according to the following procedure. Cells from lines described above were rinsed once in 1×PBS buffer without Ca²⁺/Mg²⁺ nd incubated for 10 minutes at 37° C. with Enzyme Free Cell Dissociation Solution to detach cells from a flask. All”
as §3, §4
In the case of B1, the EC50 stood at 1.9 nM and the “Ratio at 3.7 nM Ab concentration of Cell Binding Signal (RLU) to HEK293/hNPR1.myc.DKK relative to parental HEK293” value is 79 ratio.

As to B2, the EC50 came to 0.65 nM and the “Ratio at 3.7 nM Ab concentration of Cell Binding Signal (RLU) to HEK293/hNPR1.myc.DKK relative to parental HEK293” value came out at 222 ratio.

Take B3: the EC50 came out at 0.48 nM and the “Ratio at 3.7 nM Ab concentration of Cell Binding Signal (RLU) to HEK293/hNPR1.myc.DKK relative to parental HEK293” value was found to be 166 ratio.

As for B4, the midpoint of the response, the EC50, lay at 3.7 nM and the “Ratio at 3.7 nM Ab concentration of Cell Binding Signal (RLU) to HEK293/hNPR1.myc.DKK relative to parental HEK293” value turned out to be 24 ratio.

A further assay addresses T4, mfNPR1-mFc:hBNP complex (monkey; human, UniProt P16860 103-134).
T4 construct: Receptor-Fc pre-complexed with 10-fold hBNP
In words: SPR Biacore, mAb captured by anti-human Fc, 37C. The procedure: as §1
Turning to B1, the “100 nM Ag Bound (RU)” value was 82 RU, the Kd turned out to be 2.09 nM, the koff is 7.77e-05 s⁻¹ and the kon worked out at 37100 M⁻¹ s⁻¹. Moreover, the t½ worked out at 149 min.

On to B2, for which the “100 nM Ag Bound (RU)” value was found to be 150 RU, binding was characterised by a dissociation constant (Kd) of 3.39 nM, the koff turned out to be 0.000202 s⁻¹ and the kon was found to be 59600 M⁻¹ s⁻¹. Besides, the t½ worked out at 57.2 min.

Consider B3, for which the “100 nM Ag Bound (RU)” value turned out to be 99 RU, binding was characterised by a dissociation constant (Kd) of 4.29 nM, the koff came out at 0.000229 s⁻¹ and the kon was found to be 53400 M⁻¹ s⁻¹. The same molecule showed a t½ of 50.5 min.

For a further assay, the target named is T1, mNPR1-mFc. In words: SPR Biacore, mAb captured by anti-human Fc, 37C. As for the experimental part: as §1
Take B1: the “100 nM Ag Bound (RU)” value was 1 RU and the binding result is given as “no binding (tested: 100 nM)”.

B2: the “100 nM Ag Bound (RU)” value turned out to be 0 RU and the binding result was “no binding (tested: 100 nM)”.

Take B3: the “100 nM Ag Bound (RU)” value was found to be 0 RU and the binding result was “no binding (tested: 100 nM)”.
